The values that follow come from PMC8342441.

The assay addresses β-arrestin 2-Rluc (UniProt P32121). The experiment in a line: BRET (β-arrestin 2 recruitment). The note with it: point at the highest AngII dose, read off a plot. Background: Bioluminescence resonance energy transfer reports proximity on the nanometre scale.
Setting [1] is: HEK293 cells, Log[AII] = -5 M, parent: est. 0.37.
Setting [2] is: Log[AngII] = -4 M, parent: est. 0.086.
Where [3] appears, read: HEK293 cells, left plot, Log[AII] = -5 M, parent: est. 0.36.
[4] abbreviates: HEK293 cells, right plot, Log[AII] = -5 M, parent: est. 0.35.

In the case of “YFP-tagged WT angiotensin II type 1 receptor (AT1 receptor) (from UniProt P30556) D2.50N”, the response under setting [1] was 0.36 ΔBRET.
Consider “YFP-tagged WT angiotensin II type 1 receptor (AT1 receptor) (from UniProt P30556) F1.48A; L1.52A; I1.57A”, for which the response under setting [2] was 0.065 ΔBRET.
For “YFP-tagged WT angiotensin II type 1 receptor (AT1 receptor) (from UniProt P30556) F7.55W”, under setting [3], the response was 0.09 ΔBRET.
On to “YFP-tagged WT angiotensin II type 1 receptor (AT1 receptor) (from UniProt P30556) F8.54W”, for which, under setting [3], the response was 0.26 ΔBRET.
Still for that read-out and setting: in the case of “YFP-tagged WT angiotensin II type 1 receptor (AT1 receptor) (from UniProt P30556) G1.49L” it was 0.05 ΔBRET.
Consider “YFP-tagged WT angiotensin II type 1 receptor (AT1 receptor) (from UniProt P30556) K8.49A; F8.50A; K8.51A; Y8.53A; F8.54A”, for which, under setting [2], the response was 0.006 ΔBRET.
Take “YFP-tagged WT angiotensin II type 1 receptor (AT1 receptor) (from UniProt P30556) N3.35A”: the response under setting [1] is 0.12 ΔBRET.
Consider “YFP-tagged WT angiotensin II type 1 receptor (AT1 receptor) (from UniProt P30556) N7.49A”, for which the response under setting [4] was 0.25 ΔBRET.
For the substance “YFP-tagged WT angiotensin II type 1 receptor (AT1 receptor) (from UniProt P30556) N7.49A; P7.50A; F7.55A”, the response under setting [2] is 0.006 ΔBRET.
“YFP-tagged WT angiotensin II type 1 receptor (AT1 receptor) (from UniProt P30556) Y7.53A”: the response under setting [4] is 0.055 ΔBRET.
As for “YFP-tagged WT angiotensin II type 1 receptor (AT1 receptor) (from UniProt P30556) Y7.53I”, the response under setting [1] was 0.41 ΔBRET.
